In paper PMC11384143 (2024) one finds Kd, koff and IC50 data, which are given here for four molecules.

Where two headings read alike, the source gives them in different places.

Sequences and labels used below:
B1: 6 × His tagged cynomolgus SIRPα ECD recombinant protein (domain or fragment)
chain: EEELQVIQPEKSVSVAAGDSATLNCTVSSLIPVGPIQWFRGAGPGRELIYNLKEGHFPRVTPVSDPTKRNNMDFSIRISNITPADAGTYYCVKFRKGSPDVELKSGAGTELSVRAKPSAPVVSGPAVRATAEHTVSFTCESHGFSPRDITLKWFKNGNELSDVQTNVDPAGKSVSYSIRSTARVVLTRRDVHSQVICEVAHVTLQGDPLRGTANLSEAIRVPPFLEVTQQSMRADNQVNVTCQVTKFYPQRLQLTWLENGNVSRTEMASALPENKDGTYNWTSWLLVNVSAHRDDVKLTCQVEHDGQPAVNKSFSVKVSAHPKEQGSNTAAENTGTNERN
B2: hu1H9 (an analogue of FSI-189, Gilead) (antibody, V domains shown)
VH: QVQLVQSGAEVKKPGASVKVSCKASGYTFTSYWITWVKQAPGQGLEWIGDIYPGSGSTNHIEKFKSKATLTVDTSISTAYMELSRLRSDDTAVYYCATGYGSSYGYFDYWGQGTLVTVSS
VL: DIQMTQSPSSLSASVGDRVTITCRASENIYSYLAWYQQKPGKAPKLLIYTAKTLAEGVPSRFSGSGSGTDFTLTISSLQPEDFATYYCQHQYGPPFTFGQGTKLEIK
B3: HEFLB (an analogue of BI 765063) (antibody, V domains shown)
VH: EVQLVQSGAEVKKPGESLRISCKASGYSFTSYWVHWVRQMPGKGLEWMGNIDPSDSDTHYSPSFQGHVTLSVDKSISTAYLQLSSLKASDTAMYYCVRGGTGTLAYFAYWGQGTLVTVSS
VL: DVVMTQSPLSLPVTLGQPASISCRSSQSLVHSYGNTYLYWFQQRPGQSPRLLIYRVSNRFSGVPDRFSGSGSGTDFTLKISRVEAEDVGVYYCFQGTHVPYTFGGGTKVEIK
B4: 6 × His tagged huSIRPγ ECD recombinant protein (domain or fragment)
chain: EEELQMIQPEKLLLVTVGKTATLHCTVTSLLPVGPVLWFRGVGPGRELIYNQKEGHFPRVTTVSDLTKRNNMDFSIRISSITPADVGTYYCVKFRKGSPENVEFKSGPGTEMALGAKPSAPVVLGPAARTTPEHTVSFTCESHGFSPRDITLKWFKNGNELSDFQTNVDPTGQSVAYSIRSTARVVLDPWDVRSQVICEVAHVTLQGDPLRGTANLSEAIRVPPTLEVTQQPMRVGNQVNVTCQVRKFYPQSLQLTWSENGNVCQRETASTLTENKDGTYNWTSWFLVNISDQRDDVVLTCQVKHDGQLAVSKRLALEVTVHQKDQSSDATP

Assay [1] has as its target ES004-B5. Kind of assay: SPR.
In assay [2] the target is T1, 6 × His tagged huSIRPα V1 ECD recombinant protein (human, UniProt P78324 31-373). As to the kind of experiment: SPR.
T1 sequence (P78324 31-373): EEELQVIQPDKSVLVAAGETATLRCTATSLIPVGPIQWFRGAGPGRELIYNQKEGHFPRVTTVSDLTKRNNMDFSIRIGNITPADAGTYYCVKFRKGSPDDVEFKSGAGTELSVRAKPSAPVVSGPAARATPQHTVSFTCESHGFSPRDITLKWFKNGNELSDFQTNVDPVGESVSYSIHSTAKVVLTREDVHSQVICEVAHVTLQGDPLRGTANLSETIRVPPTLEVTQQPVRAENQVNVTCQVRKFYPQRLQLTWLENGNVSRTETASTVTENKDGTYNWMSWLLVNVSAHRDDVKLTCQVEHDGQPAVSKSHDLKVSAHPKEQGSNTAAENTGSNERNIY
Assay [3] deals with B4. Kind of assay: SPR.
For assay [4], the target named is B4. Kind of assay: SPR.
The target of assay [5] is T1, 6 × His tagged huSIRPα V1 ECD …. As to the kind of experiment: SPR. This is another data set of the same source.
Assay [6] has as its target huSIRPα V2 overexpressed on CHOK1/hSIRPα V2 cells (human, UniProt P78324 31-504). Kind of assay: FACS; competition with huCD47 ECD.
Assay [7] addresses huSIRPα V1 overexpressed on CHOK1/hSIRPα V1 cells (human, UniProt P78324 31-504). As to the kind of experiment: FACS; competition with huCD47 ECD.
Assay [8] addresses ES004-B5. Kind of assay: SPR. This is another data set of the same source.

Chain of huSIRPα V1 overexpressed on CHOK1/hSIRPα V1 cells (P78324 31-504): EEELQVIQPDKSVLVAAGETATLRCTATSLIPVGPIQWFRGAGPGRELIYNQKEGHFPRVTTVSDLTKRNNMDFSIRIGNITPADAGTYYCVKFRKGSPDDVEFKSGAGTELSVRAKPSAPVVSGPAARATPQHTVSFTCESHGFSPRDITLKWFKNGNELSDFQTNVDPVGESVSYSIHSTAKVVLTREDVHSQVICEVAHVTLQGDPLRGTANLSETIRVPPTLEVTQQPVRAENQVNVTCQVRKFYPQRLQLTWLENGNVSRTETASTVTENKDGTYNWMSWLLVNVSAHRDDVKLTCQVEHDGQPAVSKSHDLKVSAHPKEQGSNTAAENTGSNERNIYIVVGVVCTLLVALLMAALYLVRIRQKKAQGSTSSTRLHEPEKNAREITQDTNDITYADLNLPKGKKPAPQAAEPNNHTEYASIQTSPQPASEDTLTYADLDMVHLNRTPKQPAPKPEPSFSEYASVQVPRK
Chain of huSIRPα V2 overexpressed on CHOK1/hSIRPα V2 cells (P78324 other isoform, or with tags, fused parts or gaps): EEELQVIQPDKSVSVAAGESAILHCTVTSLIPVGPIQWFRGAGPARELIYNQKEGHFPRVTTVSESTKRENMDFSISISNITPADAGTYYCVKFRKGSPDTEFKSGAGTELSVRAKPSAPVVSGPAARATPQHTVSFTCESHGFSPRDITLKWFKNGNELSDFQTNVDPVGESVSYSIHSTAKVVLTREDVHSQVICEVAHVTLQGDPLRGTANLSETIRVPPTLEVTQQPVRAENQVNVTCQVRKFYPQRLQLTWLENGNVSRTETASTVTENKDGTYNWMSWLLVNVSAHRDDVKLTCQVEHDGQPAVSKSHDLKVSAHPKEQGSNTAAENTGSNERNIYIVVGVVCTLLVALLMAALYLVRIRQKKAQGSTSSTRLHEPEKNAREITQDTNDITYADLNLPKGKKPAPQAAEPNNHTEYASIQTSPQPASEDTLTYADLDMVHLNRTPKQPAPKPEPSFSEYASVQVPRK

With B1, in assay [1], binding was characterised by a dissociation constant (Kd) of 6.01 nM and the koff is 0.00729 s⁻¹.

On to B2, for which the koff in assay [2] was 0.00187 s⁻¹; in assay [3], 0.0135 s⁻¹. Further, the Kd stood at 20.7 nM in assay [4] and 1.91 nM in assay [5]. The figures for the IC50 in assay [6] and in assay [7] were 6.04 nM and 1.17 nM, respectively.

As for B3, the koff in assay [2] was determined as 0.00631 s⁻¹. In addition, the Kd in assay [5] amounted to 12.8 nM. This molecule also registered an IC50 in assay [7] of 1.29 nM.

In assay [8], B4 returned a Kd of 2.81 nM and a koff of 0.00422 s⁻¹.
